In publication PMC6888877, “Deconstructing and repurposing the light-regulated interplay between Arabidopsis phytochromes and interacting factors” (Communications Biology, 2019):

T1: Arabidopsis thaliana phytochrome B photosensory core module (AtPhyB PCM) (Arabidopsis thaliana, UniProt P14713 1-651, covalently incorporated bilin chromophore (PCB; co-expressed Synechocystis sp. heme oxygenase 1 and pcyA))
T1 construct: A. thaliana phytochrome B, photosensory core module (PAS-GAF-PHY with N-terminal extension), residues 1-651; Pr state (far-red light or dark) and Pfr state (red light; Pfr/Pr about 0.56/0.44) are told apart by the assays; In the cell experiments other constructs were used (PCM-VP16; PCM 1-650 with CAAX); source: E. coli BL21(DE3), plasmid pDG282, purified (Ni-NTA IMAC, anion exchange)
T1 sequence (looked up): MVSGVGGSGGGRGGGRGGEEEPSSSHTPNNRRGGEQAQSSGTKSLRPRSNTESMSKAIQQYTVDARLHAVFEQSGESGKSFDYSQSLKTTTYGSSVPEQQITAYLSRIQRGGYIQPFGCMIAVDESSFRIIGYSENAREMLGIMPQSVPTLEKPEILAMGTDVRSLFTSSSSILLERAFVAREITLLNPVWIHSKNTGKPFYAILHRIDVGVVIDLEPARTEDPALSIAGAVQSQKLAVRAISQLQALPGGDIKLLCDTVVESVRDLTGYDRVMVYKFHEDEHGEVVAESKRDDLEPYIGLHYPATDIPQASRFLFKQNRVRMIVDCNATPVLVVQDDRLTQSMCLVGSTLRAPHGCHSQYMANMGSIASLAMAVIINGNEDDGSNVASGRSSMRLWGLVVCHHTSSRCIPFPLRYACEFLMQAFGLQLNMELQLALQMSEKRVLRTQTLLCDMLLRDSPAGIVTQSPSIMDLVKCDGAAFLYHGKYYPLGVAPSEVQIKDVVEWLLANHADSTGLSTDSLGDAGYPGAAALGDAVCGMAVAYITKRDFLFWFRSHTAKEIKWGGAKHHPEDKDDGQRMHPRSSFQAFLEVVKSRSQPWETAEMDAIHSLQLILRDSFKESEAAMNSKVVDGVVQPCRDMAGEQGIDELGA

B1: P3.A-EYFP (domain or fragment)
chain: MVDEVVELVWENGQISTQSQSSRSRNIPPPQANSSRAREIGN

How the values were obtained:
[1] = molecular target: T1, Arabidopsis thaliana phytochrome B …; test: fluorescence polarisation; anisotropy of EYFP; 20 nM AtPIF-EYFP constant, AtPhyB PCM 0-10 µM titrated, red light (640 nm), Pfr state; KD corrected for the Pfr fraction (about 0.56); 20 mM HEPES/HCl pH 7.3, 10 mM NaCl, 100 µg/mL BSA; single-site isotherm; conditions: both partners purified
[2] = molecular target: the molecule itself; test: SEC; AtPIF-EYFP variants or EYFP alone, 10 µM, not illuminated; Superdex 200 Increase 10/300 GL; 67 mM sodium phosphate pH 8.0, 200 mM NaCl
[3] = molecular target: T1, Arabidopsis thaliana phytochrome B …; test: fluorescence polarisation; anisotropy of EYFP; 20 nM AtPIF-EYFP constant, AtPhyB PCM 0-10 µM titrated, far-red light (750 nm), Pr state; 20 mM HEPES/HCl pH 7.3, 10 mM NaCl, 100 µg/mL BSA; single-site isotherm; conditions: both partners purified
P3.A-EYFP = molecular target: B1; test: SEC; AtPIF-EYFP variants or EYFP alone, 10 µM, not illuminated; Superdex 200 Increase 10/300 GL; 67 mM sodium phosphate pH 8.0, 200 mM NaCl

| Kd [1] [nM] | Kd [3] [nM] | stoichiometry N (P3.A-EYFP) | Binder | stoichiometry N [2] |
| --- | --- | --- | --- | --- |
| > 2000 | – | – | MDQEYMELVFENGQILAKGQ (domain or fragment) [P6.A19-EYFP] | – |
| 10 ± 8 | – | – | AtPIF6 (1-100)-EYFP, P6.100 (domain or fragment, Arabidopsis thaliana, UniProt Q8L5W7 1-100, looked up, A. thaliana PIF6, residues 1-100; His6-SUMO only on the pET-19b construct that was purified; the pET-28c construct used in lysate has the same AtPIF part, linker and EYFP; also called P6.100-EYFP; source: E. coli BL21(DE3): in crude lysate (pET-28c), and purified (pET-19b; IMAC, SENP2 cleavage, second IMAC, optional anion exchange); not shown: His6-SUMO, N-terminal, cleaved) MMFLPTDYCCRLSDQEYMELVFENGQILAKGQRSNVSLHNQRTKSIMDLYEAEYNEDFMKSIIHGGGGAITNLGDTQVVPQSHVAAAHETNMLESNKHVD | 2 |
| 10 ± 7 | – | – | P6 (AtPIF6 1-100 without the N-terminal region preceding APB.A)-EYFP (domain or fragment) MDQEYMELVFENGQILAKGQRSNVSLHNQRTKSIMDLYEAEYNEDFMKSIIHGGGGAITNLGDTQVVPQSHVAAAHETNMLESNKHVD | – |
| 360 ± 40 | > 2000 | – | P6.AA-EYFP (domain or fragment) MDQEYMELVFENGQILAKGQRSNVSLHNQRTKSIMDLYEAEYNEDFMKSIIHGGGGDQEYMELVFENGQILAKGQRSNTNMLESNKHVD | 2 |
| 280 ± 100 | > 2000 | – | MDQEYMELVFENGQILAKGQRSNVSLHNQRTKSIMDLYEA (domain or fragment) [P6.A-EYFP] | – |
| 200 ± 70 | > 2000 | – | AtPIF3 (1-100)-EYFP, P3.100 (domain or fragment, Arabidopsis thaliana, UniProt O80536 1-100, looked up, A. thaliana PIF3, residues 1-100; His6-SUMO only on the pET-19b construct that was purified; the pET-28c construct used in lysate has the same AtPIF part, linker and EYFP; also called P3.100-EYFP; source: E. coli BL21(DE3): in crude lysate (pET-28c), and purified (pET-19b; IMAC, SENP2 cleavage, second IMAC, optional anion exchange); not shown: His6-SUMO, N-terminal, cleaved) MPLFELFRLTKAKLESAQDRNPSPPVDEVVELVWENGQISTQSQSSRSRNIPPPQANSSRAREIGNGSKTTMVDEIPMSVPSLMTGLSQDDDFVPWLNHH | 2 |
| 220 ± 40 | > 10000 | 2 | B1 | – |
| 230 ± 30 | > 10000 | – | P6.AAfus-EYFP (domain or fragment) MDQEYMELVFENGQILAKGQRSNDQEYMELVFENGQILAKGQRSNTNMLESNKHVD | – |
| 710 ± 80 | > 10000 | – | MDQEYMELVFENGQILAKGQRSN (domain or fragment) [P6.As-EYFP] | – |
| > 1000 | – | – | MVDEVVELVWENGQISTQSQ (domain or fragment) [P3.A19-EYFP] | – |
| 220 ± 40 | > 10000 | – | P3 (AtPIF3 1-100 without the N-terminal region preceding APB.A)-EYFP (domain or fragment) MVDEVVELVWENGQISTQSQSSRSRNIPPPQANSSRAREIGNGSKTTMVDEIPMSVPSLMTGLSQDDDFVPWLNHH | 2 |
| 230 ± 50 | > 10000 | – | P3.AAfus-EYFP (domain or fragment) MVDEVVELVWENGQISTQSQSSRSRVDEVVELVWENGQISTQSQSSRSRFVPWLNHH | – |
| 680 ± 60 | > 10000 | – | MVDEVVELVWENGQISTQSQSSRSR (domain or fragment) [P3.As-EYFP] | – |
| 270 ± 60 | > 10000 | – | MVDEVVELVWENGQISTQSQSSRSRMTGLSQDDDFVPWLNHH (domain or fragment) [P3.fus-EYFP] | – |
| 200 ± 90 | > 10000 | – | P6.fus-EYFP (domain or fragment) MDQEYMELVFENGQILAKGQRSNAITNLGDTQVVPQSHVAAAHETNMLESNKHVD | 2 |
| 370 ± 40 | > 3000 | – | P3.AA-EYFP (domain or fragment) MVDEVVELVWENGQISTQSQSSRSRNIPPPQANSSRAREIGNGSKTTMVDEIPMSVPSLVDEVVELVWENGQISTQSQSSRSRFVPWLNHH | 2 |
